Molecular target: T1, human complement component C1q (human, UniProt P02745 23-245; P02746 28-253; P02747 29-245)
T1 construct: complement C1q subcomponent subunit A, human; complement C1q subcomponent subunit B, human; complement C1q subcomponent subunit C, human; Detected with fluorescent anti-C1q; also called complement C1q; source: bought: Sigma (C1740); copies: + +
Experiment: glycan array; AEAB-labelled D. immitis neutral N-glycan pool printed on NHS-modified glass slides; incubated first with human CRP (5 µg/ml), then serially with C1q and fluorescent anti-C1q; fluorescence read-out, mean of 10 spots
Details: both partners purified

T1 sequence (P02745 23-245, chain 1 of 3): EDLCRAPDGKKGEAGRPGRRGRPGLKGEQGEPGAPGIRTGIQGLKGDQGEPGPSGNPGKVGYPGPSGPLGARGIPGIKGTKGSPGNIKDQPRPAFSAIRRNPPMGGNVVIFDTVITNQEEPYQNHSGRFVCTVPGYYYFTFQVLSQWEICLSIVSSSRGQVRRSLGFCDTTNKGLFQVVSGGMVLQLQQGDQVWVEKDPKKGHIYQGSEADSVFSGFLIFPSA
T1 sequence (P02746 28-253, chain 2 of 3): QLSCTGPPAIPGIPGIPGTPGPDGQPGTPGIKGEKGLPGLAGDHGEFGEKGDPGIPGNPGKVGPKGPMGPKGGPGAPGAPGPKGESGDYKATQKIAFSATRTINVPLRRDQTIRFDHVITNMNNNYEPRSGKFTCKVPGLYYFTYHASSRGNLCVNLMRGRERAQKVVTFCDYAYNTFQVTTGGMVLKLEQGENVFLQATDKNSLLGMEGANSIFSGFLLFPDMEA
T1 sequence (P02747 29-245, chain 3 of 3): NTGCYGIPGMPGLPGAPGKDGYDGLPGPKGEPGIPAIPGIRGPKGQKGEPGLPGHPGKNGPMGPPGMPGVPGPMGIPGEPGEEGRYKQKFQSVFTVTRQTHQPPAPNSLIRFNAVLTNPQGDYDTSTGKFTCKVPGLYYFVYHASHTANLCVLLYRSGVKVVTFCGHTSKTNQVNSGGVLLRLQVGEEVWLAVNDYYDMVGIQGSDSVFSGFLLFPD

B1: natural human C-reactive protein (natural protein, UniProt P02741 19-224, looked up)
chain: QTDMSRKAFVFPKESDTSYVSLKAPLTKPLKAFTVCLHFYTELSSTRGYSIFSYATKRQDNEILIFWSKDIGYSFTVGGSEILFEVPEVTVAPVHICTSWESASGIVEFWVDGKPRVRKSLKKGYTVGAEASIILGQEQDSFGGNFEGSQSLVGDIGNVNMWDFVLSPDEINTIYLGGPFSPNVLNWRALKYEVQGEVFTKPQLWP
notes: C-reactive protein, human, natural; called pentameric in the discussion; also called CRP; human pentraxin C-reactive protein; source: bought: MPBio (215231505)
B1: binds.

From article PMC6325117, “Highly modified and immunoactive N-glycans of the canine heartworm” (Nature Communications, 2019)
